{"source": "patent US20250281598", "key": {"[1]": {"system": "2G12 (anti-HIV gp120 broadly neutralizing antibody)", "assay": "filter", "settings": "2'-F pyrimidines, every U is 2'-F-5-ethynyl-U clicked to Man9-cyclohexyl azide (3 glycans)"}, "[2]": {"system": "2G12 (anti-HIV gp120 broadly neutralizing antibody)", "assay": "pulldown", "settings": "2'-F pyrimidines, qPCR bead assay as glyco-RNA/DNA hybrid"}, "[3]": {"system": "2G12 (anti-HIV gp120 broadly neutralizing antibody)", "assay": "FP filter", "settings": "2'-F pyrimidines; every U is 2'-F-5-ethynyl-U clicked to Man9-cyclohexyl azide (4 glycans); nitrocellulose filter binding, 32P RNA not gel purified; 20 mM Tris pH 7.5, 150 mM NaCl, 2 mM MgSO4; Fbmax 7.0%"}}, "note": "pKd: −log10 of the molar value."}
{"sequence": "GGAGAGAAGGAGGGAAGAGAGAAAAAAAAAAGCGCCCAGGUGAUUGGGCGCAAGCGACACAAAGCCCGG [15F3-M1-Mod]", "values": [{"measurement": "pKd", "setting": "[1]; gel purified and refolded, Fbmax 51%", "value": 7.44}]}
{"sequence": "GGAGAGAAGGAGGGAAGAGAGAAAAAAAACAGAGGGAACCCAGGUGAUUGGGGCAAGCGACACAAAGCCCGG [15F3-M1]", "values": [{"measurement": "pKd", "setting": "[2]; every U is 2'-F-5-ethynyl-U clicked to Man9-cyclohexyl azide (3 glycans), Fbmax 1.1%", "value": 7.51}]}
{"sequence": "GGAGAGAAGGAGGGAAGAGAGAAAAAAAACAUAGGGAACCCAGGUGAUUGGGGCAAGCGACACAAAGCCCGG [15F3]", "values": [{"measurement": "pKd", "setting": "[2]; every U is 2'-F-5-ethynyl-U clicked to Man9-cyclohexyl azide (4 glycans), room temperature, Fbmax 3.8%", "value": 7.72}, {"measurement": "pKd", "setting": "[3]", "value": 7.89}]}
{"sequence": "GGAGAGAAGGAGGGAAGAGAGAAAAAAUCGACGGAACAGGGGCCCCCUGUGGAAAGCGACACAAAGCCCGG [15F1]", "values": [{"measurement": "pKd", "setting": "[2]; every U is 2'-F-5-ethynyl-U clicked to Man9-cyclohexyl azide (3 glycans), room temperature, Fbmax 7.9%", "value": 7.40}, {"measurement": "pKd", "setting": "[1]; 20 mM Tris pH 7.5, 150 mM NaCl, 2 mM MgSO4, not gel purified, Fbmax 23%", "value": 7.40}]}
